This note sets out measurements from PMC11957191.

The target of assay [1] is myristoylated human Arf1 (myrArf1), GTP-bound form at a membrane surface (human) (UniProt P84077). Kind of assay: not stated; binding test of the K391A mutant shown in Fig. SI5; method not given.
The target is the same in assay [2].
Assay [3] shares this target. The source holds these as a separate data set.
Assay [4] has as its target myrArf1 with Glu54 mutated to Ala (human) (UniProt P84077).

Sequence of myristoylated human Arf1 (myrArf1), GTP-bound form at a membrane surface (human) (P84077 whole entry): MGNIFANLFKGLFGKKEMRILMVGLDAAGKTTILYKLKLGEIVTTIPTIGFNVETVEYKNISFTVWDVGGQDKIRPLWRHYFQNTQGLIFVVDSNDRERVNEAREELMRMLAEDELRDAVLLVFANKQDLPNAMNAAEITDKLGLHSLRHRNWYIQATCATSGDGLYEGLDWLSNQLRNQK
Sequence of ASAP1 PZA with Phe438 mutated to Ala (Q9QWY8 other isoform, or with tags, fused parts or gaps, change not shown): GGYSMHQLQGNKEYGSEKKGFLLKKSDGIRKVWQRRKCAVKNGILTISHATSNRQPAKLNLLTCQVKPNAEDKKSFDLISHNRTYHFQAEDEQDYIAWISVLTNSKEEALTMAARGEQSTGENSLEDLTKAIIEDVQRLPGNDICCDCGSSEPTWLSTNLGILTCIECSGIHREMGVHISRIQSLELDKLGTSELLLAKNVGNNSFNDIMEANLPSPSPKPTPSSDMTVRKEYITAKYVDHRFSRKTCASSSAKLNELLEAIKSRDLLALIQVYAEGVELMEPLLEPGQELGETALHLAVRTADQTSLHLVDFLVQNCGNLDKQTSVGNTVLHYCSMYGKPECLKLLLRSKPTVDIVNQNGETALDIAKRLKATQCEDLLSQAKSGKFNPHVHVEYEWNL
Sequence of ΔN14PZA, ASAP1 PZA without residues 325–338 (Q9QWY8 339-724, stated change not applied): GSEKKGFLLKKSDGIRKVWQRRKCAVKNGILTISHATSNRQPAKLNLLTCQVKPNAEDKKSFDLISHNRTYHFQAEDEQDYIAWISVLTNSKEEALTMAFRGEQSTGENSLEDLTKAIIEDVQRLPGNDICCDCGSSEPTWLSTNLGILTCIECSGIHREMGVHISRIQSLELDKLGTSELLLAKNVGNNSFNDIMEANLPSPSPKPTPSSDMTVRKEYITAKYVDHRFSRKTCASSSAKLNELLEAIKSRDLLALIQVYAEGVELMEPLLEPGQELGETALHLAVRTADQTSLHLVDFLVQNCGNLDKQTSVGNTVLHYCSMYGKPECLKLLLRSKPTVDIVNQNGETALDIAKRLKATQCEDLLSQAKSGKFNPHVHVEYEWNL
Sequence of wt PZA, [325–724]ASAP1 (PH domain, Arf GAP zinc-binding domain and ankyrin repeats) (Q9QWY8 325-724): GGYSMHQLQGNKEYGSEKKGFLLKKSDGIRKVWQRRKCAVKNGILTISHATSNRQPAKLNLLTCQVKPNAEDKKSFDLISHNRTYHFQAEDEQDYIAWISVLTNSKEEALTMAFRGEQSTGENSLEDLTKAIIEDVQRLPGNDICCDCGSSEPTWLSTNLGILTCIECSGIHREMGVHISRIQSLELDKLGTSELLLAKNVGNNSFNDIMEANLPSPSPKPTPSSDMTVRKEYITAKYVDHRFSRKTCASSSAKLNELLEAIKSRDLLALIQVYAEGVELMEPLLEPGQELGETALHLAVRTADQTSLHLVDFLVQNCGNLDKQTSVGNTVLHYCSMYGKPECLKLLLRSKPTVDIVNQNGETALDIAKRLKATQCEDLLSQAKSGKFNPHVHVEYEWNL
Sequence of ASAP1 PZA with Lys391 mutated to Ala (Q9QWY8 other isoform, or with tags, fused parts or gaps, change not shown): as the sequence (Q9QWY8 325-724) above, with K67A counted along it
Sequence of ASAP1 PZA with His405 mutated to Glu (Q9QWY8 other isoform, or with tags, fused parts or gaps, change not shown): as the sequence (Q9QWY8 325-724) above, with H81E counted along it
Sequence of myrArf1 with Glu54 mutated to Ala (human) (P84077 other isoform, or with tags, fused parts or gaps, change not shown): as the sequence (P84077 whole entry) above, with E54A counted along it

The substance “ASAP1 PH domain with Lys391 mutated to Ala (from UniProt Q9QWY8 325-451) (domain or fragment)” registered a fold reduction of binding against wild type in assay [1] of 2 fold.
Take “ΔN14PZA, ASAP1 PZA without residues 325–338 (from UniProt Q9QWY8 339-724) (domain or fragment)”: the GAP activity on myrArf1·GTP relative to wt PZA (fold of wt PZA) in assay [2] is < 0.01.
In assay [3], “ASAP1 PZA with His405 mutated to Glu (from UniProt Q9QWY8 325-724) (domain or fragment)” had an ArfGAP activity (C50 of PZA for 50% GTP hydrolysis in 3 min), fold reduction against wild type of 5 fold.
In assay [4], “wt PZA, [325–724]ASAP1 (PH domain, Arf GAP zinc-binding domain and ankyrin repeats) (from UniProt Q9QWY8 325-724) (domain or fragment)” had an ArfGAP activity (C50 of PZA for 50% GTP hydrolysis in 3 min), fold reduction against wild type of 70 fold.
For “ASAP1 PZA with Phe438 mutated to Ala (from UniProt Q9QWY8 325-724) (domain or fragment)”, the ArfGAP activity (C50 of PZA for 50% GTP hydrolysis in 3 min), fold reduction against wild type in assay [3] stood at 15 fold.
Still for that read-out and setting: the figure for “ASAP1 PZA with Lys391 mutated to Ala (from UniProt Q9QWY8 325-724) (domain or fragment)” is 100 fold.
